In article PMC6370948, “Complement Dependent and Independent Interaction Between Bovine Conglutinin and Mycobacterium bovis BCG: Implications in Bovine Tuberculosis” (Frontiers in Immunology, 2018):

Target: the molecule itself
Assay: cross-linking; 20 μg/ml purified rfBC with BS3 (5 μl of 1 mM added to 100 μl), room temperature, 0-64 min, stopped with 20 mM Tris-HCl pH 7.5; SDS-PAGE and Coomassie staining

B1: recombinant truncated form of bovine conglutinin (rfBC), composed of the α-helical neck region and the CRD (domain or fragment, bovine (Bos taurus), UniProt P23805 217-371, looked up)
chain: EVNALKQRVTILDGHLRRFQNAFSQYKKAVLFPDGQAVGEKIFKTAGAVKSYSDAEQLCREAKGQLASPRSSAENEAVTQMVRAQEKNAYLSMNDISTEGRFTYPTGEILVYSNWADGEPNNSDEGQPENCVEIFPDGKWNDVPCSKQLLVICEF
notes: bovine conglutinin, neck region (amino acids 197-224) and C-terminal CRD (amino acids 225-351); numbers count on: the mature protein; also called recombinant fragment of conglutinin; recombinant bovine conglutinin
Q: How did the “stoichiometry N” value turn out when B1 was run?
A: 3
